{"source": "patent US20230212268A1", "about": "(UNM RAINFOREST INNOVATIONS, published 2023)", "binders": {"B1": {"name": "EbovGPscFv4-2 (scFv)", "scFv": "MAWSHPQFEKTGSGGAELVKSGASVKLSCTASGFNIKDDYMHWVKQRPEQGLEWIGWIDPENGDTEYASKFQGKATITADTSSNTAYLQLSSLTSEDTAVYYCTTYYYGSAWFAYWGQGTLVTVSAGGGGSGGGGSGGGGSGGGGSASLSVSVGETVTITCRASGNIHNYLAWYQQKQGKSPQLLVYNAKTLADGVPSRFSGSGSGTQYSLKINNLQPEDFGSYYCQHFWSTPYTFGGGTKLEIKRADAAPTVSIFPPSSEQLTSGGASVVCFLNNFTHCQELQQDECS"}}, "key": {"[1]": {"molecular_target": "T1, recombinant SUDV glycoprotein (SUDV (Sudan ebolavirus), UniProt Q7T9D9 33-650)", "T1 sequence": "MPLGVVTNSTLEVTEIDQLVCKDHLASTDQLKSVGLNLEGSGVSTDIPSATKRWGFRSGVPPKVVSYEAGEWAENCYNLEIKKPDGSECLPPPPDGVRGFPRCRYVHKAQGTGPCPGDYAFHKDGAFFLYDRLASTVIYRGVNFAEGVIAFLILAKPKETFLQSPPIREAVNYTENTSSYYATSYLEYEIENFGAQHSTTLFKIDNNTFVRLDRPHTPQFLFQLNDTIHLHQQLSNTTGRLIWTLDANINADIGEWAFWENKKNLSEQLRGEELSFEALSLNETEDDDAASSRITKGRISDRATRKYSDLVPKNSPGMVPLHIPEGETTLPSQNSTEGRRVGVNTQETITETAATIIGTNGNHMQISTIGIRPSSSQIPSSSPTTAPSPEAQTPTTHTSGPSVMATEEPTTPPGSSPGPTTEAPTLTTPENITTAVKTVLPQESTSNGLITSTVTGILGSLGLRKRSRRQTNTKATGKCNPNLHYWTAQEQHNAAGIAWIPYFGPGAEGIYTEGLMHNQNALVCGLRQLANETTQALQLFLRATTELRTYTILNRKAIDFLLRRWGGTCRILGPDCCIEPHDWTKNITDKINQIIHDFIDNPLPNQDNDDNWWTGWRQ", "assay": "ELISA dose-response fit, reference scFv22-1"}, "[2]": {"molecular_target": "T2, recombinant TAFV glycoprotein (TAFV (Tai Forest virus), UniProt Q66810 33-650)", "T2 sequence": "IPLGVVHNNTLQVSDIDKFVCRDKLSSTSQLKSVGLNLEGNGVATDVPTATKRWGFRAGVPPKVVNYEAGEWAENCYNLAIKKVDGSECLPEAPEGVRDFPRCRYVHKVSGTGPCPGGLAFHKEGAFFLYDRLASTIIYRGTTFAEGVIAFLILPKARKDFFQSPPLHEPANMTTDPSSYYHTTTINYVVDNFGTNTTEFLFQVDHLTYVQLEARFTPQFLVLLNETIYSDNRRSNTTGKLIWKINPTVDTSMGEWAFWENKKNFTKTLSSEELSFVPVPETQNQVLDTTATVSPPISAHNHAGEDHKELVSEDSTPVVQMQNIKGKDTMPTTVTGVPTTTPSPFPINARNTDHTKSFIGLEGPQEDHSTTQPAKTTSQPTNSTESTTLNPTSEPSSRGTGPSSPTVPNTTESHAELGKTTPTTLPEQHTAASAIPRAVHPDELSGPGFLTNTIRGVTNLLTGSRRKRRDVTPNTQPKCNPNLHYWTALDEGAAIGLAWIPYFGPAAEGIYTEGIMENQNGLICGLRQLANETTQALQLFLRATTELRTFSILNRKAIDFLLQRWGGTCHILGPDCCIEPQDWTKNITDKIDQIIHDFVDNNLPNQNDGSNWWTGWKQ", "assay": "ELISA dose-response fit, reference scFv22-1"}, "[3]": {"molecular_target": "T3, recombinant MARV glycoprotein (MARV (marburgvirus, Ravn), UniProt Q1PDC7 19-648)", "T3 sequence": "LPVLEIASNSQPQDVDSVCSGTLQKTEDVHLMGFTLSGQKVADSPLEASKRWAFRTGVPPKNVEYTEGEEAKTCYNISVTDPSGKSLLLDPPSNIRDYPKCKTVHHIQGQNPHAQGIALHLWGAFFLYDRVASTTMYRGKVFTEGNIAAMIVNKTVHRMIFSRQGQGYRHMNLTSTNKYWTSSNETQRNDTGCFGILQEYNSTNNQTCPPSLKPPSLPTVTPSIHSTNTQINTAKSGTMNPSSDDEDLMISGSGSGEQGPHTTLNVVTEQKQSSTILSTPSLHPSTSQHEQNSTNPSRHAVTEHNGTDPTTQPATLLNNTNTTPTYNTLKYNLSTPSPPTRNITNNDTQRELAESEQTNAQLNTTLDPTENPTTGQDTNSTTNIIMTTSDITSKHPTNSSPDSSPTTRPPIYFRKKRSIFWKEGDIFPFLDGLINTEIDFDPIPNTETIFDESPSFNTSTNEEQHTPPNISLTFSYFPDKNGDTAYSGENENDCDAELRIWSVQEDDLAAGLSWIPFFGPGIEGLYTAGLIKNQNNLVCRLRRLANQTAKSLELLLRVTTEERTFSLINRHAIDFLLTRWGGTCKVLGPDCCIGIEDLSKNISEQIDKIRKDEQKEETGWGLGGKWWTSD", "assay": "ELISA dose-response fit, reference scFv22-1"}, "[4]": {"molecular_target": "T4, recombinant EBOV glycoprotein (EBOV (Zaire ebolavirus), UniProt Q05320 33-650)", "T4 sequence": "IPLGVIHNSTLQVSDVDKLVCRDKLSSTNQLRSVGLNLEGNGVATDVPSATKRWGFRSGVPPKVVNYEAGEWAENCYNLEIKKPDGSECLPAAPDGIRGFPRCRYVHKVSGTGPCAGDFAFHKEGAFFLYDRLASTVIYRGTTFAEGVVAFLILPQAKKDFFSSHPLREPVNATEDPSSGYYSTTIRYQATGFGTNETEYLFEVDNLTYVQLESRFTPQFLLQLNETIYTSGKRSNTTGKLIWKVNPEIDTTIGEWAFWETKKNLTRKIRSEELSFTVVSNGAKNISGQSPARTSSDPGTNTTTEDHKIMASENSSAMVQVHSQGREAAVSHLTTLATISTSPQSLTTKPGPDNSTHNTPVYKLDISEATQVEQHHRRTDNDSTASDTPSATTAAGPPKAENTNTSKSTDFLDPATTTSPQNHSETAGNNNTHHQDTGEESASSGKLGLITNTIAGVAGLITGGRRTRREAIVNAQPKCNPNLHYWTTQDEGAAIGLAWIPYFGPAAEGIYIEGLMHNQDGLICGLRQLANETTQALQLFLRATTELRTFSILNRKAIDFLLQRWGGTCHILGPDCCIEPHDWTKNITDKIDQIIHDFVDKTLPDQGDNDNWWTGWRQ", "assay": "maximal binding from ELISA dose-response fit"}, "[5]": {"molecular_target": "T1, recombinant SUDV glycoprotein", "assay": "maximal binding from ELISA dose-response fit"}}}
{"binder": "B1", "values": [{"measurement": "fold affinity against scFv22-1", "setting": "[1]", "result": "~2", "unit": "fold"}, {"measurement": "fold affinity against scFv22-1", "setting": "[2]", "result": "~2", "unit": "fold"}, {"measurement": "fold affinity against scFv22-1", "setting": "[3]", "result": "~2", "unit": "fold"}, {"measurement": "Bmax signal", "setting": "[4]", "result": 350000, "unit": "relative absorbance units"}, {"measurement": "Bmax signal", "setting": "[5]", "result": 280000, "unit": "relative absorbance units"}]}
